Assay results from patent publication US11091546B2, “Optimized PNE-based chimeric receptor T cell switches and uses thereof” (The Scripps Research Institute, priority 2015, dated 2021).
Values joined by “and” are separate entries in the source; they are usually repeats but may differ in a detail not shown here. Equal values may be shown once.

What was measured:
Nalm-6^Luc/GFP cells = assay: Nalm-6 Luc/GFP leukemia xenograft; assay type: in vivo; conditions: IgG format
Protocol: NSG mice were inoculated with CD19^+ Nalm-6^GFP/Luc cells. Six days later, 40×10^6 sCAR-T cells were delivered IV and switch dosing commenced every other day at 0.5 mg/kg for 10 days. Tumor burden was followed by luminescence after injection of luciferin and imaged on an in vivo imaging system (IVIS; PerkinElmer, Waltham, Mass., USA).
Asterisks indicate significance from LCNT Fab group. Data are represented as means±SEM, and statistical significance was calculated using the 2-way ANOVA with Bonferroni's post-test (B & E; shown for final time-point only) or by one-tailed student's t-test (C & F) where *=p<0.05, **=p<0.01 and ***=p<0.001.
NSG mice were inoculated with Nalm-6^GFP/Luc as described in FIG. 28. […] A fourth group consisted of two cohorts (n=3) of mice injected I.V. with sCAR-T cells without (−) LCNT Fab switch. LCNT Fab dosing in the indicated group was carried out daily at 0.5 mg/kg after the initial T cell infusion. Luminescence was measured at 6 h and subsequently every 24 h as indicated. Cohorts were sacrificed for analysis immediately following IVIS imaging. […] Gray lines indicate tumor burden in PBS and sCAR-T cell—LCNT Fab controls. […] Data are represented as means±SEM, and statistical significance was calculated using the one-tailed student's t-test (C & D) where *=p<0.05, **=p<0.01 and ***=p<0.001.
NSG mice were inoculated with Nalm6^GFP/Luc and six days later engrafted with short-dimeric sCAR-T cells as described in FIG. 29. […] Dosing was carried out for 15 d starting at day 6 (corresponding with sCAR-T cell infusion) as indicated by gray shading. Control groups CART-19 and PBS received no switch. The NS group received sCAR-T cells but no switch. Open circles denote the death of individual mice without evidence of tumor burden and may reflect GVHD. Triangles in PBS, NS and q.a.d. group indicate death due to increasing tumor burden. […] (19) indicates CART-19. […] (19) indicates CART-19. […] Triangles indicate the death of individual mice with significant tumor burden. The single mouse death in the 0.05 mg/kg group occurred while tumor burden was decreasing. […] Statistical significance was calculated using the one-tailed student's t-test (B, C & E) where *=p<0.05, **=p<0.01 and ***=p<0.001.
The different sCAR designs were tested in a xenograft model harboring luciferized NALM-6 (CD19+, CD80−, CD86−) cells. 1 mg/kg monovalent switch “A” was administered along with sCAR cells. […] Optimized hinge improved response. Short hinge CARs have faster clearance. Short, dimeric hinge CARs have improved persistence. Tumor burden was visualized with IVIS imaging. Experiments are repeated with a humanized scFv and bivalent switches.
Activity of the switchable CAR-T cell platform in vivo was evaluated via tumor regression in a Nalm-6^Luc/GFP leukemia xenograft model in immunodeficient NOD scid gamma (NSG) mice. These mice without treatment succumb to disease within 21 days. The impact of CAR hinge design on in vivo efficacy was determined using mice inoculated with Nalm-6^Luc/GFP, followed by I.V. injection of long, short, or short-dimeric sCAR-T cells 6 days later. The LCNT Fab was dosed I.V. (0.5 mg/kg) every other day for 10 days and tumor regression was followed by in vivo imaging (IVIS) of the luciferase signal from Nalm-6^Luc/GFP cells (FIG. 29A).
The effect of switch grafting position on the control of tumor burden was determined. As with the previous model, short-dimeric CAR-T cells were injected 6 days after tumor inoculation and mice were treated every other day (starting at day 6) with 0.5 mg/kg LCNT, HCNT, NTBV, LCC1, or HCCT Fab switches (FIG. 29D).
To determine the proliferation and localization of sCAR-T cell cytotoxicity during this time interval, mice were sorted into 5 cohorts per treatment regimen and analyzed at 8, 24, 48, 72, and 96 h after treatment with short-dimeric sCAR-T cells+LCNT Fab switch or with conventional CART-19 and no switch. […]

MOLM14 cell line = assay: Cytokines in cytotoxicity assay supernatant (CBA Human Th1/Th2 II Kit); assay type: cell-based; set-up: unit not given here; conditions: duplicates
Source text: (§1) FIG. 38A illustrates multiple fusion/grafting locations: A=LCNT1 (light chain N terminus version 1), B=HCNT3 (heavy chain N terminus version 3), C=heavy chain C terminus, and D=light chain C terminus). […] Data shown are an average of duplicate samples, and error bars represent SD. Only the NT switches plus the BvCT and By CH1CL1 as references are depicted.
(§2) Monovalent and bivalent combinations of these switches were expressed and tested in cytotoxicity assays at a dose titration within the range of 0.4 nM to 0.0001 nM. […] Data shown are an average of duplicate samples, and error bars represent SD. Only the NT switches plus the BvCT and By CH1CL1 as references are depicted. cytokine secretion was measured.

CD33+ MOLM14 cells = assay: Cytotoxicity assay, sCAR-T cells + anti-CD33 (hP67.6) switches; assay type: cell-based; set-up: unit not given here; conditions: duplicates
Source text: as §1, §2

CD123+ MOLM14 cells = assay: Flow cytometry based cytotoxicity assay, sCAR-T cells + anti-CD123 Fab switches; assay type: cell-based; conditions: duplicates
Protocol: as §1
The flow cytometry based cytotoxicity assay were performed in RPMI-1640 media supplemented with 5% heat inactivated FBS, 1% Pen/Strep, 1% glutamine, and 1% Sodium pyruvate. Target cells (2×10^4 cells) were pre-labeled with CellVue Claret Far Red Fluorescent Cell linker (Sigma-Aldrich) and co-cultured with 1×10^5 sCAR-T cells. Variable concentration of switch was added to assess in vitro activity. This assay was conducted in a volume of 100 ul in 96-well U bottom plate for 24 hours, after which the cells were stained with 7-AAD viability dye (1:100; BD Biosciences) in FACs staining buffer (PBS with 2 mM EDTA and 1% FCS) and acquired on BD Accuri C6 flow cytometer. The viability was calculated as following formula: […]=[(no switch viable target cells-experimental viable target cells)/no switch viable target cells]*100
Activity was confirmed by flow cytometry based cytotoxicity assay (FIG. 38J & FIG. 38K). FIG. 38J and Table 31. […] FIG. 38K and Table 32.

anti-CD19 IgG LCNT: FMC63 anti-CD19 IgG, peptide on N-terminus of light chain (SEQ ID 36 & 28)
tumor burden (IVIS) (Nalm-6^Luc/GFP cells; 0.5 mg/kg every 5 days for 15 days (3 doses)): unable to significantly control tumor burden | tumor growth (Nalm-6^Luc/GFP cells; 1 mg/kg every day for 10 d): unable to control tumor growth

hP67.6 LCNT: anti-CD33 hP67.6 Fab, GCN4 on light chain N-terminus, GGGGS linker (SEQ ID 217 & 232)
IFNg in supernatant (FIG. 38H) (MOLM14 cell line): 448.47 and 374.76 | Il-2 in supernatant (FIG. 38H) (MOLM14 cell line): 328.62 and 234 | TNFa in supernatant (FIG. 38H) (MOLM14 cell line): 53.4 and 44.84 | cytotoxicity (FIG. 38G) (CD33+ MOLM14 cells; switch 0.1 pM): 0 | cytotoxicity (FIG. 38G) (CD33+ MOLM14 cells; switch 0.64 pM): 5.9 and 4.6 | cytotoxicity (FIG. 38G) (CD33+ MOLM14 cells; switch 3.2 pM): 36.9 and 35.9 | cytotoxicity (FIG. 38G) (CD33+ MOLM14 cells; switch 16 pM): 58.7 and 59.2 | cytotoxicity (FIG. 38G) (CD33+ MOLM14 cells; switch 80 pM): 66 and 66.5 | cytotoxicity (FIG. 38G) (CD33+ MOLM14 cells; switch 400 pM): 59.5 and 60.9

hP67.6 NTBV: anti-CD33 hP67.6 Fab, N-terminal bivalent (SEQ ID 217 & 220)
IFNg in supernatant (FIG. 38H) (MOLM14 cell line): 957.81 and 958.26 | Il-2 in supernatant (FIG. 38H) (MOLM14 cell line): 936.57 and 898.28 | TNFa in supernatant (FIG. 38H) (MOLM14 cell line): 98.48 and 97.95 | cytotoxicity (FIG. 38G) (CD33+ MOLM14 cells; switch 0.1 pM): 0 | cytotoxicity (FIG. 38G) (CD33+ MOLM14 cells; switch 0.64 pM): 0.9 and 0.8 | cytotoxicity (FIG. 38G) (CD33+ MOLM14 cells; switch 3.2 pM): 23.6 and 28.4 | cytotoxicity (FIG. 38G) (CD33+ MOLM14 cells; switch 16 pM): 55.4 and 57.1 | cytotoxicity (FIG. 38G) (CD33+ MOLM14 cells; switch 80 pM): 69.7 and 69.2 | cytotoxicity (FIG. 38G) (CD33+ MOLM14 cells; switch 400 pM): 69.3 and 69.5

B1: 32716 NTBv: anti-CD123 clone 32716 Fab, N-terminal bivalent (protein)
light: NYHLENEVARLKKLGGGGSDIVLTQSPASLAVSLGQRATISCRASESVDNYGNTFMHWYQQKPGQPPKLLIYRASNLESGIPARFSGSGSRTDFTLTINPVEADDVATYYCQQSNEDPPTFGAGTKLELRTVAAPSVFIFPPSDEQLKSGTASVVCLLNNFYPREAKVQWKVDNALQSGNSQESVTEQDSKDSTYSLSSTLTLSKADYEKHKVYACEVTHQGLSSPVTKSFNRGEC
heavy: NYHLENEVARLKKLLVGEAAAKEAAAKAQIQLVQSGPELKKPGETVKISCKASGYIFTNYGMNWVKQAPGKSFKWMGWINTYTGESTYSADFKGRFAFSLETSASTAYLHINDLKNEDTATYFCARSGGYDPMDYWGQGTSVTVSSARTKGPSVFPLAPSSKSTSGGTAALGCLVKDYFPEPVTVSWNSGALTSGVHTFPAVLQSSGLYSLSSVVTVPSSSLGTQTYICNVNHKPSNTKVDKKVEPKSC
Percent of cytotoxicity in target cells (CD123+ MOLM14 cells; FIG. 38K, clone 32716, switch 0.01 pM): 0% | Percent of cytotoxicity in target cells (CD123+ MOLM14 cells; FIG. 38K, clone 32716, switch 0.128 pM): 2.2% and 3.1% | Percent of cytotoxicity in target cells (CD123+ MOLM14 cells; FIG. 38K, clone 32716, switch 0.64 pM): 1.6% and −6.4% | Percent of cytotoxicity in target cells (CD123+ MOLM14 cells; FIG. 38K, clone 32716, switch 3.2 pM): 6.4% and 0.2% | Percent of cytotoxicity in target cells (CD123+ MOLM14 cells; FIG. 38K, clone 32716, switch 16 pM): 13.7% and 12.6% | Percent of cytotoxicity in target cells (CD123+ MOLM14 cells; FIG. 38K, clone 32716, switch 80 pM): 27% and 28.5% | Percent of cytotoxicity in target cells (CD123+ MOLM14 cells; FIG. 38K, clone 32716, switch 400 pM): 50.9% and 44.5% | Percent of cytotoxicity in target cells (CD123+ MOLM14 cells; FIG. 38K, clone 32716, switch 2000 pM): 60.9% and 55.7% | Percent of cytotoxicity in target cells (CD123+ MOLM14 cells; FIG. 38K, clone 32716, switch 10000 pM): 58.3% and 51%

B2: 26292 NTBv: anti-CD123 clone 26292 Fab, N-terminal bivalent (protein)
light: NYHLENEVARLKKLGGGGSDVQITQSPSYLAASPGETITINCRASKSISKDLAWYQEKPGKTNKLLIYSGSTLQSGIPSRFSGSGSGTDFTLTISSLEPEDFAMYYCQQHNKYPYTFGGGTKLEIRTVAAPSVFIFPPSDEQLKSGTASVVCLLNNFYPREAKVQWKVDNALQSGNSQESVTEQDSKDSTYSLSSTLTLSKADYEKHKVYACEVTHQGLSSPVTKSFNRGEC
heavy: NYHLENEVARLKKLLVGEAAAKEAAAKAQVQLQQPGAELVRPGASVKLSCKASGYTFTSYWMNWVKQRPDQGLEWIGRIDPYDSETHYNQKFKDKAILTVDKSSSTAYMQLSSLTSEDSAVYYCARGNWDDYWGQGTTLTVSSARTKGPSVFPLAPSSKSTSGGTAALGCLVKDYFPEPVTVSWNSGALTSGVHTFPAVLQSSGLYSLSSVVTVPSSSLGTQTYICNVNHKPSNTKVDKKVEPKSC
Percent of cytotoxicity in target cells (CD123+ MOLM14 cells; FIG. 38J, clone 26292, switch 0.01 pM): 0% | Percent of cytotoxicity in target cells (CD123+ MOLM14 cells; FIG. 38J, clone 26292, switch 0.128 pM): 2% and 3.4% | Percent of cytotoxicity in target cells (CD123+ MOLM14 cells; FIG. 38J, clone 26292, switch 0.64 pM): 7.4% and 6.4% | Percent of cytotoxicity in target cells (CD123+ MOLM14 cells; FIG. 38J, clone 26292, switch 3.2 pM): 9.8% and 4.1% | Percent of cytotoxicity in target cells (CD123+ MOLM14 cells; FIG. 38J, clone 26292, switch 16 pM): 16.5% and 19.3% | Percent of cytotoxicity in target cells (CD123+ MOLM14 cells; FIG. 38J, clone 26292, switch 80 pM): 31.4% and 33.2% | Percent of cytotoxicity in target cells (CD123+ MOLM14 cells; FIG. 38J, clone 26292, switch 400 pM): 57.5% and 55.5% | Percent of cytotoxicity in target cells (CD123+ MOLM14 cells; FIG. 38J, clone 26292, switch 2000 pM): 64.2% and 62.1% | Percent of cytotoxicity in target cells (CD123+ MOLM14 cells; FIG. 38J, clone 26292, switch 10000 pM): 55.3% and 57.4%
